Data: patent US20180319855A1, “GENETICALLY MUTATED AEQUORIN-BASED BIOSENSORS WITH EXTRA SENSITIVITY TO CALCIUM AND IMPROVED BIOLUMINESCENCE INTENSITY” (CENTRE NATIONAL DE LA RECHERCHE SCIENTIFIQUE (CNRS), priority 2015, published 2018)
Substitutions are numbered along the chain they refer to. Numbers in names are those of the source. Where “and” joins values, the source holds several entries; their conditions need not be identical. Equal values may be shown once. Read-outs that look alike come from different tables or passages of the source.

How the values were obtained:
[1] = Ca2+ sensitivity curves of reconstituted photoproteins (L/Lmax vs free Ca2+); assay type: biochemical; details: for affinity to calcium group relative to Aeq-wt: at pCa 6.5, FIG. 2; for EC50: read-out: Calcium sensitivity, EC50
Protocol: For in vitro reconstitution, the purified and concentrated samples of apoaequorin and redquorin mutant proteins were buffer-exchanged to 50 mM Tris-HCl (pH 7.5), 150 mM NaCl, 10 mM EGTA, 5 mM ß-mercaptoethanol, supplemented with 5 μM CLZ-f or CLZ-native and incubated overnight at 4° C., in the dark. The next day, samples were passed through molecular weight cut-offs (AmiconUitra MWCO, 10K and 50K, from Millipore), then resuspended in Zero-Ca^2+ buffer (30 mM MOPS, 100 mM KCl and 10 mM EGTA, pH 7.2) for calcium affinity, emission decay kinetics and spectral analysis assays. As for in cellulo reconstitution, HEK cells transiently expressing the proteins of apoaequorin and aporedquorin mutants were washed twice with Hank's Balanced Salt Solution (HBSS) and incubated in the dark, with 4 μM of the desired CLZ diluted in OptiMEM I medium (Gibco), for 2-3h at 37° C. and 5% CO2. Cells were washed once and maintained in HBSS at 37° C. for 20 min before the experiment.
Functional Analysis of Aequorin Mutants and Fusions Ca^2+ Sensitivity Curves.
Purified and reconstituted samples with CLZ-f or CLZ-native already buffered-exchanged to zero-calcium buffer ensured to minimize calcium contamination that could interfere with the measurements. Fifteen microliter aliquot of photoprotein samples (concentration range, 50 to 90 ng/μl) was placed in a home-made luminometer and mixed with 300 μl solution containing the desired concentration of free-Ca^2+. The solutions of EGTA-buffered with varying free-Ca^2+ prepared according to the manufacturer instruction for the kit (Molecular Probes, Invitrogen). Integration of the luminescence emission (per second) was measured for 20 seconds (background) before injecting a solution with known [free-Ca^2+] and lasted until stable or decaying signal (at final-phase) was obtained. At this point, 400 μl of a saturating calcium solution (30 mM MOPS, 100 mM CaCl2, pH 7.2) was rapidly injected (less than 30 ms) and light integration continued until all aequorin had been consumed and light intensity had gone back to background signal. Luminescence intensity (L) at different [Ca^2+] was taken as the response peak value in case of decaying signal or as the stable value in case of stable emission. Lmax, was measured by integrating all remaining luminescence signal from that moment (L value) to the end of the experiment. The EC50 values were extracted from a sigmoidal dose-response fit (variable slope) using GraphPad Prism software.

[2] = Thermostability: relative bioluminescence activity after 30 min incubation; assay type: physicochemical; details: for Thermostability, luminescence activity relative to wt-aequorin: CLZ-f; for less activity compared to wt-aeq (thermostability): after incubation at 30 and 40° C.
Protocol: Thermostability of aequorin and redquorin mutant with increased affinity for calcium were compared to wt-aequorin (FIG. 5). The purified photoprotein samples were reconstituted with CLZ-f (as detailed earlier) and let to calibrate at room temperature (20-24° C.) for 20 min before taken the first measurement of total counts using saturating calcium solution (50 mM Tris-HCl, 100 mM CaCl2, pH 7.5). Samples were then incubated at two different temperatures (30 to 40° C.) for 30 min, and let equilibrate at room temperature for 15 minbefore taken the second measurement of total counts in the sample. The relative bioluminescence activity at each temperature was calculated by the ratio 2nd counts (at target T° C.)/1st counts (at initial T° C.) multiplied by 100.
Table 6 highlights the analysis of thermostability data obtained at two temperatures for aequorin and redquorin mutants, as well as CitA and GA. The values represent the degree of change in luminescence activity compared to wt-aeq, at each temperature. All values are relative to wt-aequorin (at each temperature) and were calculated by dividing the obtained data for each mutant/variant by the data for wt-aeq (as reference). The data were taken from FIG. 5.

[3] = CLZ-f, L/Lmax compared to Aeq-wt
[4] = aequorin proteins reconstituted with CLZ-f, sigmoidal curve fit, mean ± SD, n at least 3

B1: A123D: apoaequorin mutant, alanine 123 replaced by aspartic acid (SEQ ID NO:10) (protein)
chain: SKLTSDFDNPRWIGRHKHMFNFLDVNHNGKISLDEMVYKASDIVINNLGATPEQAKRHKDAVEAFFGGAGMKYGVETDWPAYIEGWKKLATDELEKYAKNEPTLIRIWGDALFDIVDKDQNGDITLDEWKAYTKAAGIIQSSEDCEETFRVCDIDESGQLDVDEMTRQHLGFWYTMDPACEKLYGGAVP
modifications: mutant aequorin
Relative intensity at pCa 6.5 [1, 3]: 3.6
Relative intensity at pCa 7.2 [1, 3]: 1.6
affinity to calcium group relative to Aeq-wt ([1]; CLZ-f): medium-high to high
EC50 [1, 4]: 374 nM
Thermostability, luminescence activity relative to wt-aequorin ([2]; 30° C. for 30 min): 0.82
Thermostability, luminescence activity relative to wt-aequorin ([2]; 40° C. for 30 min): 0.84
less activity compared to wt-aeq (thermostability) [2]: 19%

B2: A179T: apoaequorin mutant, alanine 179 replaced by threonine (SEQ ID NO:11) (protein)
chain: B1 chain with D123A, A179T
modifications: mutant aequorin
Relative intensity at pCa 6.5 [1, 3]: 3.0
Relative intensity at pCa 7.2 [1, 3]: 1.3
affinity to calcium group relative to Aeq-wt ([1]; CLZ-f): medium-high to high
EC50 [1, 4]: 330 nM
Thermostability, luminescence activity relative to wt-aequorin ([2]; 30° C. for 30 min): 0.96
Thermostability, luminescence activity relative to wt-aequorin ([2]; 40° C. for 30 min): 1.02

B3: Q159D: apoaequorin mutant, glutamine 159 replaced by aspartic acid (SEQ ID NO:5) (protein)
chain: B1 chain with D123A, Q159D
modifications: mutant aequorin
Relative intensity at pCa 6.5 [1, 3]: 25 and 25.1
affinity to calcium group relative to Aeq-wt ([1]; CLZ-f): medium-high to high and high
EC50 [1, 4]: 330 nM
Thermostability, luminescence activity relative to wt-aequorin ([2]; 30° C. for 30 min): 0.95
Thermostability, luminescence activity relative to wt-aequorin ([2]; 40° C. for 30 min): 1.00

B4: Q159T: apoaequorin mutant, glutamine 159 replaced by threonine (SEQ ID NO:6) (protein)
chain: B1 chain with D123A, Q159T
modifications: mutant aequorin
Relative intensity at pCa 6.5 [1, 3]: 16 and 16.6
Relative intensity at pCa 7.2 [1, 3]: 4.8
affinity to calcium group relative to Aeq-wt ([1]; CLZ-f): medium-high to high
EC50 [1, 4]: 249 ± 13 nM
Thermostability, luminescence activity relative to wt-aequorin ([2]; 30° C. for 30 min): 0.92
Thermostability, luminescence activity relative to wt-aequorin ([2]; 40° C. for 30 min): 0.96

B5: S157D: apoaequorin mutant, serine 157 replaced by aspartic acid (SEQ ID NO:12) (protein)
chain: B1 chain with D123A, S157D
modifications: mutant aequorin
Relative intensity at pCa 6.5 [1, 3]: 6.0
Relative intensity at pCa 7.2 [1, 3]: 2.2
EC50 [1, 4]: 322 nM
Thermostability, luminescence activity relative to wt-aequorin ([2]; 30° C. for 30 min): 0.77
Thermostability, luminescence activity relative to wt-aequorin ([2]; 40° C. for 30 min): 0.71
less activity compared to wt-aeq (thermostability) [2]: up to 29%

B6: QD + AT: apoaequorin double mutant Q159D + A179T (SEQ ID NO:17) (protein)
chain: B1 chain with D123A, Q159D, A179T
modifications: mutant aequorin
Relative intensity at pCa 6.5 [1, 3]: 58.5
Relative intensity at pCa 7.2 [1, 3]: 60.8
EC50 [1, 4]: 216 nM
Thermostability, luminescence activity relative to wt-aequorin ([2]; 30° C. for 30 min): 1.05
Thermostability, luminescence activity relative to wt-aequorin ([2]; 40° C. for 30 min): 1.07

B7: Redq/QT + AT: aporedquorin mutant Q159T + A179T (SEQ ID NO:24) (protein)
chain: MVSKGEEVIKEFMRFKVRMEGSMNGHEFEIEGEGEGRPYEGTQTAKLKVTKGGPLPFAWDILSPQFMYGSKAYVKHPADIPDYKKLSFPEGFKWERVMNFEDGGLVTVTQDSSLQDGTLIYKVKMRGTNFPPDGPVMQKKTMGWEASTERLYPRDGVLKGEIHQALKLKDGGHYLVEFKTIYMAKKPVQLPGYYYVDTKLDITSHNEDYTIVEQYERSEGRHHLFLGHGTGSTGSGSSGTASSEDNNMAVIKEFMRFKVRMEGSMNGHEFEIEGEGEGRPYEGTQTAKLKVTKGGPLPFAWDILSPQFMYGSKAYVKHPADIPDYKKLSFPEGFKWERVMNFEDGGLVTVTQDSSLQDGTLIYKVKMRGTNFPPDGPVMQKKTMGWEASTERLYPRDGVLKGEIHQALKLKDGGHYLVEFKTIYMAKKPVQLPGYYYVDTKLDITSHNEDYTIVEQYERSEGRHHLFLSGFDNPRWIGRHKHMFNFLDVNHNGKISLDEMVYKASDIVINNLGATPEQAKRHKDAVEAFFGGAGMKYGVETDWPAYIEGWKKLATDELEKYAKNEPTLIRIWGDALFDIVDKDQNGAITLDEWKAYTKAAGIIQSSEDCEETFRVCDIDESGTLDVDEMTRQHLGFWYTMDPTCEKLYGGAVP
modifications: mutant aequorin
EC50 ([1]; CLZ-f, redquorin series, CitA, GA): 284 ± 30 nM
Relative intensity at pCa 6.5 ([1]; CLZ-f, relative to Redq): 25.6
Relative intensity at pCa 7.2 ([1]; CLZ-f, relative to Redq): 9.0
EC50 ([1]; CLZ-native, redquorin series, CitA, GA): 605 ± 16 nM
Relative intensity at pCa 6.5 ([1]; CLZ-native, relative to Redq): 18.3
Relative intensity at pCa 7.2 ([1]; CLZ-native, relative to Redq): 14.1
Thermostability, luminescence activity relative to wt-aequorin ([2]; 30° C. for 30 min): 0.96
Thermostability, luminescence activity relative to wt-aequorin ([2]; 40° C. for 30 min): 1.03

B8: N121D: apoaequorin mutant, asparagine 121 replaced by aspartic acid (SEQ ID NO:9) (protein)
chain: B1 chain with N121D, D123A
modifications: mutant aequorin
Relative intensity at pCa 6.5 [1, 3]: 4.9
Relative intensity at pCa 7.2 [1, 3]: 2.1
EC50 [1, 4]: 400 ± 14 nM
Thermostability, luminescence activity relative to wt-aequorin ([2]; 30° C. for 30 min): 0.81
Thermostability, luminescence activity relative to wt-aequorin ([2]; 40° C. for 30 min): 0.82
less activity compared to wt-aeq (thermostability) [2]: 19%

B9: QD + ND: apoaequorin double mutant Q159D + N121D (SEQ ID NO:13) (protein)
chain: B1 chain with N121D, D123A, Q159D
modifications: mutant aequorin
Relative intensity at pCa 6.5 [1, 3]: 29.0
Relative intensity at pCa 7.2 [1, 3]: 41.7
EC50 [1, 4]: 295 ± 17 nM
Thermostability, luminescence activity relative to wt-aequorin ([2]; 30° C. for 30 min): 0.81
Thermostability, luminescence activity relative to wt-aequorin ([2]; 40° C. for 30 min): 0.81
less activity compared to wt-aeq (thermostability) [2]: 20%

B10: Q159G: apoaequorin mutant, glutamine 159 replaced by glycine (SEQ ID NO:7) (protein)
chain: B1 chain with D123A, Q159G
modifications: mutant aequorin
Relative intensity at pCa 6.5 [1, 3]: 3.3
Relative intensity at pCa 7.2 [1, 3]: 3.2
EC50 [1, 4]: 492 ± 10 nM
Thermostability, luminescence activity relative to wt-aequorin ([2]; 30° C. for 30 min): 0.96
Thermostability, luminescence activity relative to wt-aequorin ([2]; 40° C. for 30 min): 0.92

B11: QD + AD: apoaequorin double mutant Q159D + A123D (SEQ ID NO:15) (protein)
chain: B1 chain with Q159D
modifications: mutant aequorin
Relative intensity at pCa 6.5 [1, 3]: 26.2
Relative intensity at pCa 7.2 [1, 3]: 15.0
EC50 [1, 4]: 271 ± 15 nM
Thermostability, luminescence activity relative to wt-aequorin ([2]; 30° C. for 30 min): 0.97
Thermostability, luminescence activity relative to wt-aequorin ([2]; 40° C. for 30 min): 0.94

B12: Q159E: apoaequorin mutant, glutamine 159 replaced by glutamic acid (SEQ ID NO:8) (protein)
chain: B1 chain with D123A, Q159E
modifications: mutant aequorin
Thermostability, luminescence activity relative to wt-aequorin ([2]; 30° C. for 30 min): 0.89
Thermostability, luminescence activity relative to wt-aequorin ([2]; 40° C. for 30 min): 0.94
